The source of these data is patent publication US10406204B2, “Multimeric antimicrobial peptide complex which is displayed on cell surface” (KOREA ADVANCED INSTITUTE OF SCIENCE AND TECHNOLOGY, priority 2010, dated 2019).

Common to all, as to experiment: Antimicrobial activity of pepsin-treated E. coli displaying multimeric antimicrobial peptide complex
Common to all, as to assay type: cell-based
Details in all cases: pepsin-digested in SGF 30 minutes; E. coli BL21 (DE3) = 0%, synthesized Hinge2L = 100%; OD595

The test system of experiment [1] is gram-negative Escherichia coli. The protocol:
(§1) The antimicrobial effect of the E. coli strain, constructed in Example 4 and displaying the multimeric antimicrobial peptide complex on the cell surface, was measured. Specifically, the transformed E. coli BL21 (DE3) was cultured in 100 ml of LB medium, and when the culture medium reached an OD600 of 0.5-0.6, 0.2 mM IPTG was added thereto to induce the expression of the multimeric antimicrobial peptide complex linked to the cell surface anchoring motif. 4 hours after the induction of the expression, the medium was removed, and the cells were washed twice with NAPB (sodium phosphate buffer), and then resuspended in the same buffer. All the E. coli samples were adjusted to a cell number of 1×10^10 cfu/ml. Then, pepsin was dissolved in simulated gastric fluid (SGF) (0.084 N HCl, 35 mM NaCl, pH 1.2 or 2.0), and the E. coli cells were treated with the pepsin solution and incubated for 30 minutes. After the incubation, in order to deactivate pepsin and neutralize the pH, the same concentration of NaOH aqueous solution as that of the simulated gastric fluid was added to the cells, and the cell solution was centrifuged to remove cell debris other than the monomeric antimicrobial peptide digested by pepsin.
(§2) The antimicrobial activities of the pepsin-digested monomeric antimicrobial peptide against gram-positive Staphylococus aureus, gram-negative Escherichia coli and the yeast Saccharomyces cerevisiae were measured.
(§3) Each of the microbial strains was collected in the exponential growth phase during the culture, washed twice with NAPB, and then resuspended in the same buffer. The number of the microbial cells was adjusted to 1×10^5 cfu/ml. 10 μl of an aqueous solution containing each microbial strain and the pepsin-digested monomeric antimicrobial peptide was dispensed into each well of a 96-well plate, mixed well and incubated at 37° C. for 3 hours. After 3 hours, 2×TSB (Trypticase Soy Broth) medium was added to the cells which were then incubated at 37° C. for 12 hours, after which the absorbance at OD595 was measured.

Experiment [2] has as its system gram-positive Staphylococus aureus. The protocol:
as §1, §2, §3

In experiment [3] the test system is yeast Saccharomyces cerevisiae. The protocol:
as §1, §2, §3

B1: LH3: trimer of antimicrobial peptide Hinge2L linked to cell surface anchoring motif Lpp-OmpA, displayed on E. coli BL21 (DE3) (protein)
chain: MKATKLVLGNNNGPTHENQLGAGAFGGYQVNPYVGFEMGYDWLGRMPYKGSVENGAYKAQGVQLTAKLGYPITDDLDIYTRLGGMVWRADTKSNVYGKNHDTGVSPVFAGGVEYAITPEIATRGRLRVVRQWPIGRVVRRVVRRVVRLRVVRQWPIGRVVRRVVRRVVRLRVVRQWPIGRVVRRVVRRVVRL
modifications: displayed on E. coli BL21(DE3); DNA sequence of Lpp-OmpA-Hinge2L3
Consider B1, for which the antimicrobial activity in experiment [1] worked out at 30%; in experiment [2] it was 17.95%; in experiment [3], 33.17%.
